Data published in paper PMC3858360.

Target: human Myo5a globular domain, Myo5a (1467–1855) (human) (UniProt Q9Y4I1)
Experiment: SPR; Biacore 3000, 25°C; Myo5a GD covalently immobilised on a CM5 chip (50–100 RU); steady-state binding with a multi-injection protocol, HMM 0–413 nM; 20 mM MOPS-KOH pH 7.0, 0.1 M NaCl, 2 mM MgCl2, 0.5 mM EGTA, 10 µM Calmodulin, 1 mM TCEP

Sequence of UniProt Q9Y4I1 (Q9Y4I1 1467-1855): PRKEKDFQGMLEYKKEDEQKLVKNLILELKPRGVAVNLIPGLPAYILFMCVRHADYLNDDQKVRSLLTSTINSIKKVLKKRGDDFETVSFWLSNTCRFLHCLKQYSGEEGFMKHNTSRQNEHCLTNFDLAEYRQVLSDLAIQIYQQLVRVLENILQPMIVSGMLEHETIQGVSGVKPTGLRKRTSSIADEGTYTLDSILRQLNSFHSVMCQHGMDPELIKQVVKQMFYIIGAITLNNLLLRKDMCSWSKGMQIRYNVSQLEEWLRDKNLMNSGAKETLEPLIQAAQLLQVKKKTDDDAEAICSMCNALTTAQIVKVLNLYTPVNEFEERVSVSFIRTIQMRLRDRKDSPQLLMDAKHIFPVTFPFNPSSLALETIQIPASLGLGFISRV

- Kd: 30 nM
Substance: murine Myo5a HMM complex: Myo5a (1–1105) C-terminally fused to GCN4-Flag, coexpressed with essential light chains and calmodulins (from UniProt Q99104 1-1105; P0DP26 1-149)
